Patent US6887705B1, “Tyrosine phosphorylated cleavage furrow-associated proteins (PSTPIPs)” (Genentech, Inc., priority 1997, dated 2005)
“Also recorded” adds a separate entry of the source. Like-named read-outs stand apart in the source and are kept apart here.

Assays:
[1] = tested on: PSTPIP tyrosine phosphorylation; experiment: Tyrosine phosphorylation of PSTPIP in COS cells co-transfected with V-src; type: cell-based; conditions: COS cells
Experimental: Baf3 cells were lysed in 1% Triton, 50 mM HEPES. 10% glycerol and 5 mM EDTA containing 1 μg/ml aprotinin, PMSF, leupeptin and pepstatin were 1 mM Sodium Vanadate and 10 mM Iodoacetic acid. Cells were treated with 0.1 mM Pervanadate for 4 hours before lysis. Immunoprecipitations were performed in the vanadate-containing lysis buffer using 1 μg/ml anti-PSTPIP polyclonal antibody and 400 μg of lysate protein at 4° C. overnight. Western blots were performed using 1 μg/ml affinity purified anti-PSTPIP or 1:5000 dilution of commercial 4G10 anti-phosphotyrosine monoclonal (Upstate Biotech). Signal was detected by HRPO-ECL reagents (Pierce). The C221-S mutant was as previously described (Cheng et al., (1996) supra). The PTP HSCF D197-A mutant was generated using PCR. Mutagenesis primer D197A.F ([…]) (SEQ ID NO:24), corresponding to nucleotide 591, and primer D197A.R ([…]) (SEQ ID NO:25) which corresponds to the stop codon, were used in PCR to generate a fragment that could be cut with Mscl and XbaI. pRK.HA.38 WT, a plasmid which encoded the wild type enzyme under the control of the cytomegalovirus promoter (Cheng et al., (1996) supra), was digested with Clal and Mscl and the resulting 600 bp fragment was ligated with the Mscl-Xbal PCR fragment into the Clal and Xbal sites of the pRK.tkneo. A plasmid encoding the V-src oncogene under the control of the SV40 early promoter was the kind gift of Dr. Art Levinson (CEO-Genetech, Inc.). NIH 3T3 cells and the COS-7 cells were cultured in high glucose DMEM supplemented with 10% FBS, 2 mM L-Glutamine, 10 mM HEPES pH 7.2 and pen-strep.
(§1) COS-7 cells were transfected by electroporation. Briefly, 1.5×10^6 COS-7 cells were mixed with 24 μg total DNA in PBS and electroporated at 960 μF, […] (Bio-Rad™ Gene Pulsar™). Following electroporation, cells were seeded in 10 cm dishes and incubated for 3 days. 10-cm dishes of transfected COS cells were washed twice with ice-cold PBS, and lysed in 1 ml of M-RIPA (50 mM Tris 7.4, 1% NP40, 0.25% DOC, 150 mM NaCl, 1 mM sodium ortho-vanadate, 1 mM NaF plus Complete™ Protease Inhibitors (Boehringer Mannheim)). Lysates were incubated for 15 minutes with 100 μl UltraLink Immobilized Protein A/G™ (Pierce) at 4° C., followed by centrifugation for 5 minutes. Supernatants were collected and stored at −70° C. or directly immunoprecipitated. 5 μg of M2 or 12CA5 was added to 500 μl of lysate and incubated overnight at 4° C. Ultralink Protein A/G™ was added and incubation continued for 2 hours at 4° C. The immune complexes were washed 3 times with M-RIPA. The proteins were subjected to SDS-PAGE and transferred to nitrocellulose in 1X Transfer Buffer™ (Novex). Immunoblots were blocked overnight at 4° C. in 3% milk/PBS. To detect Flag-tagged PIP, blots were incubated with 10 μg/ml Bio-M2 (Biotinylated anti-FLAG monoclonal Ab, KODAK) followed by incubation in 10 μg/ml streptavidin-HRP (UBI). To detect HA-tagged PTPhscf, blots were incubated in anti-(HA)-peroxidase (Boehringer Mannheim) as per manufacturer's instructions. To detect phosphotyrosine, blots were incubated in HRP-conjugated 4G10 (anti-phosphotyrosine monoclonal, UBI) as per manufacture's instructions.
COS cells were transfected with a constant amount of either the wild type of W232A mutant of PST PIP and cotransfected with increasing amounts of a plasmid encoding the v-Src tyrosine kinase (Spencer et al, (1997), supra). Plasmid concentrations were equalized with an empty vector containing the CMV promoter. After 48 hours, lysates were prepare and immunoprecipitated with anti-FLAG monoclonal antibody. Precipitates were run on SDS polyacrylamide gels, blotted, and probed with either anti-FLAG antibody or anti-phosphotyrosine antibody as previously described (Spencer et al, (1997), supra). Bound antibodies were visualized using enhanced chemiluminescent reagents.

[2] = tested on: PST PIP - PTP HSCF association; experiment: Coprecipitation of PST PIP and PTP HSCF from co-transfected COS cells; type: cell-based
Experimental: as §1
In vitro binding analyses between various PTP HSCF and PST PIP constructs were performed as previously described (Spencer et al, (1997), supra). Briefly, plasmids were transcribed and translated in vitro using the TnT Rabbit Reticulocyte Lysate System (Promega). Samples were diluted in 50 mM HEPES, pH 7.2, 1% triton X-100, 10% glycerol, 100 mM NaCl, and 2 μg/ml each of leupeptin, pepstatin, aprotinin and PMSF (lysis buffer). Samples were than reacted with GST fusion proteins at various concentrations, and the bound proteins were centrifuged using glutathione-sepharose beads and analyzed on SDS polyacrylamide gels. C-terminally-derived peptide inhibition studies were performed by incubating the GST fusion protein binding reactions in the presence of 10 μg/ml of the indicated peptides. Peptides were produced by FMOC-protected amino acids as previously described (Spencer et al, (1997), supra). In vivo interactions between various forms of PTP HSCF and PST PIP were also performed as previously described (Spencer et al, (1997), supra). Briefly, COS cells were transfected with various constructs, and after 48 hours, lysates were prepared and immunoprecipitated with antibodies to either the FLAG epitope contained at the C-terminus of PST PIP or an HA epitope contained at the N-terminus of PTP HSCF. The resultant blots were probed with anti-FLAG to detect PST PIP, anti-HA to detect PTP HSCF or anti-phosphotyrosine to detect levels of this modified amino acid in each protein.

Molecule | efficiency of tyrosine phosphorylation in the presence of v-Src versus wild type [1] | tyrosine phosphorylation of PST PIP forms in the presence of dominant negative PTP HSCF C-S (substrate trapping) [1] | levels of phosphotyrosine in mutant versus wild type PST PIP, densitometry ([1]; increasing v-Src plasmid) | in vivo association (coprecipitation) of PST PIP and PTP HSCF [2] | tyrosine phosphorylation of PST PIP forms in the presence of dominant negative PTP HSCF C-S (substrate trapping) ([1]; listed as PST PIP wt) | tyrosine phosphorylation of PST PIP forms in the presence of dominant negative PTP HSCF C-S (substrate trapping) ([1]; listed as wild type PST PIP) | in vivo association (coprecipitation) of PST PIP and PTP HSCF ([2]; listed as PST PIP wt) | in vivo association (coprecipitation) of PST PIP and PTP HSCF ([2]; listed as wild type PST PIP)
W232A mutant of PST PIP, C-terminal FLAG (other, In vitro translated or expressed in COS cells; also called W232A PST PIP; PST PIP with an alanine replacement mutation at tryptophan232) MMAQLQFRDAFWCRDFTAHTGYEVLLQRLLDGRKMCKDVEELLRQRAQAEERYGKELVQIARKAGGQTEMNSLRTSFDSLKQQTENVGSAHIQLALALREELRSLEEFRERQKEQRKKYEAIMDRVQKSKLSLYKKTMESKKAYDQKCRDADDAEQAFERVSANGHQKQVEKSQNKAKQCKESATEAERVYRQNIEQLERARTEWEQEHRTTCEAFQLQEFDRLTILRNALAVHCNQLSMQCVKDDELYEEVRLTLEGCDVEGDINGFIQSKSTGREPPAPVPYQNYYDREVTPLIGSPSIQPSCGVIKRFSGLLHGSPKTTPSAPAASTETLTPTPERNELVYASIEVQATQGNLNSSAQDYRALYDYTAQNSDELDISAGDILAVILEGEDGWWTVERNGQRGFVPGSYLEKLDYKDDDDK | significantly more efficiently tyrosine phosphorylated | not hyperphosphorylated | 2-3 fold | complete lack of in vivo association; also recorded: neither coprecipitated with PTP HSCF | – | – | – | –
PSTPIP: murine PST Phosphatase Interacting Protein, 415 residues (SEQ ID NO:1) (protein, Mus Musculus) MMAQLQFRDAFWCRDFTAHTGYEVLLQRLLDGRKMCKDVEELLRQRAQAEERYGKELVQIARKAGGQTEMNSLRTSFDSLKQQTENVGSAHIQLALALREELRSLEEFRERQKEQRKKYEAIMDRVQKSKLSLYKKTMESKKAYDQKCRDADDAEQAFERVSANGHQKQVEKSQNKAKQCKESATEAERVYRQNIEQLERARTEWEQEHRTTCEAFQLQEFDRLTILRNALWVHCNQLSMQCVKDDELYEEVRLTLEGCDVEGDINGFIQSKSTGREPPAPVPYQNYYDREVTPLIGSPSIQPSCGVIKRFSGLLHGSPKTTPSAPAASTETLTPTPERNELVYASIEVQATQGNLNSSAQDYRALYDYTAQNSDELDISAGDILAVILEGEDGWWTVERNGQRGFVPGSYLEKL | – | – | – | – | hyperphosphorylated | enhanced tyrosine phosphorylation | found in a complex with precipitated PTP HSCF | in vivo association of the proteins
